Assay results taken from PMC9299485, “4‐Iodopyrimidine Labeling Reveals Nuclear Translocation and Nuclease Activity for Both MIF and MIF2” (Chemistry (Weinheim an Der Bergstrasse, Germany), 2021).

Test system: human genomic DNA
Experiment: Nuclease assay of MIF and MIF2 on human genomic DNA (agarose gel)
Format: biochemical
Conditions: for concentration giving complete hgDNA cleavage: within 2 h, 37°C, Mg2+
Method: 7. Nuclease activity of MIF and MIF2.
Human genomic DNA was obtained from RPE-1 cells by DNA extraction following the protocol described in literature.[10] The nuclease assays were conducted by following the procedure described previously.[8] hgDNA (200 ng/reaction) was incubated with MIF or MIF2 in final concentration of 0.62 -20 µM as indicated in 10Mm Tris-HCl buffer (pH 7.0) containing 10mM MgCl2 (B and C) or specific buffer as indicated at 37°C for two hours. The reaction was terminated with loading buffer containing 10mM EDTA and incubation on ice. The human genomic DNA samples were immediately separated on a 1% agarose gel containing SYBR Safe (ThermoFisher) in 0.5 X TBE buffer with initial switch time of 1.5 s and a final switch time of 3.5 s for 12 hours at 6 V/cm. DNA was further detected by chemiluminescence.
Figure S7. hgDNA cleavage activity of MIF and MIF2. (A) The MIF2 nuclease activity is Mg 2+- […]
BITC is a covalent inhibitor that can form covalent bond with the N-terminal proline.[11] (C) […]
(1 picture or pasted object on this page, not shown here)

Molecule | nuclease activity relative to MIF (lower activity than MIF) | concentration giving complete hgDNA cleavage
MIF2: recombinant human MIF2 (D-dopachrome tautomerase), tested as nuclease on hgDNA (protein, UniProt P30046 2-118, looked up) D-dopachrome decarboxylase: PFLELDTNLPANRVPAGLEKRLCAAAASILGKPADRVNVTVRPGLAMALSGSTEPCAQLSISSIGVVGTAEDNRSHSAHFFEFLTKELALGQDRILIRFFPLESWQIGKIGTVMTFL | 10 fold | above 10 μM
MIF: recombinant human macrophage migration inhibitory factor, tested as nuclease on hgDNA (protein, UniProt P14174 2-115, looked up) Macrophage migration …: PMFIVNTNVPRASVPDGFLSELTQQLAQATGKPPQYIAVHVVPDQLMAFGGSSEPCALCSLHSIGKIGGAQNRSYSKLLCGLLAERLRISPDRVYINYYDMNAANVGWNNSTFA | – | 1.25 µM
